pKd: −log10 of the molar value.
Key:
Human FcαRI (human) = Human FcαRI (human) (UniProt P24071); assay: Wasatch array SPR, antibody immobilised, n>=3
[1] = molecular target: T1, Mouse polymeric immunoglobulin receptor (mouse) (UniProt O70570); assay: SPR (Biacore); panel shown again on D00107
T1 sequence (looked up): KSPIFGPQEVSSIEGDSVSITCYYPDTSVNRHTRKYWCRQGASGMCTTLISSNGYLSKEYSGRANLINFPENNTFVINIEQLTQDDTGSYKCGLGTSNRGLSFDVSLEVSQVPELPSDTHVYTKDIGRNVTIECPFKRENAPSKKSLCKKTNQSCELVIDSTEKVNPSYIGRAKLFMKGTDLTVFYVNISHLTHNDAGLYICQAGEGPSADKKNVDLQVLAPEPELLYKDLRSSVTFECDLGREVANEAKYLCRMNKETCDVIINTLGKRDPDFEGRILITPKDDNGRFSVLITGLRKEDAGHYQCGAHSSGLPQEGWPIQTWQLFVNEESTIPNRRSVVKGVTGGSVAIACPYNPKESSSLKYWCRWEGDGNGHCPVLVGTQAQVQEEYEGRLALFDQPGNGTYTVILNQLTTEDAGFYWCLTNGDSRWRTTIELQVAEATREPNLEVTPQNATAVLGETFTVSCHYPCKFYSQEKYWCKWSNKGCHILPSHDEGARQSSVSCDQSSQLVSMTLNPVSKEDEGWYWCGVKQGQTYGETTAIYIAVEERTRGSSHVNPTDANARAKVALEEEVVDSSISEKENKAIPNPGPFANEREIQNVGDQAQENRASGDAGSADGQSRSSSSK

[2] = molecular target: Human polymeric immunoglobulin receptor (human) (UniProt P01833); assay: SPR (Biacore)
[3] = molecular target: T1, Mouse polymeric immunoglobulin receptor (mouse); assay: SPR (Biacore)

Sequence of UniProt P01833 (P01833 19-638 limits assumed): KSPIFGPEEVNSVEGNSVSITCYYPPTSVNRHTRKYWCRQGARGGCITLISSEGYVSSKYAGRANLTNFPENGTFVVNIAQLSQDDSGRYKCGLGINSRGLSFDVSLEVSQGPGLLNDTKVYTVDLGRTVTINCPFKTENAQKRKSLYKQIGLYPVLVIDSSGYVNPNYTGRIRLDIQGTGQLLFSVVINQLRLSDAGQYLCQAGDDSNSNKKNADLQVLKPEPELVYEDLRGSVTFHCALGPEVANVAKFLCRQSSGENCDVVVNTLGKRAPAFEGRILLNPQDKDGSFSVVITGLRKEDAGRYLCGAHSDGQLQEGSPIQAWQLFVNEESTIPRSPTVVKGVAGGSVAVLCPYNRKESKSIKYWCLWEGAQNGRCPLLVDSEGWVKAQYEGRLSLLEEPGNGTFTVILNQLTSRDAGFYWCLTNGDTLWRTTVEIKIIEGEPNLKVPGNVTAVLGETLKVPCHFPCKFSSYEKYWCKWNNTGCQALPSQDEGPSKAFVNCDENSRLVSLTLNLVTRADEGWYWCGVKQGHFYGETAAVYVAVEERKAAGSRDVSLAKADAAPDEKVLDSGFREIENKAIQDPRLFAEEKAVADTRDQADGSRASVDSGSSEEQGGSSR
Sequence of UniProt P24071 (P24071 22-227 limits assumed): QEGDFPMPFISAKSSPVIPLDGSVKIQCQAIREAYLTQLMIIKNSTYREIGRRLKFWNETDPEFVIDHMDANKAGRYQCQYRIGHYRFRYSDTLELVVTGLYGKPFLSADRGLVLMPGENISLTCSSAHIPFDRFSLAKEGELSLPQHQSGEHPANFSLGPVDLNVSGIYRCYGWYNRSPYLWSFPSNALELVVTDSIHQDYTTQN

Row | pKd (Human FcαRI (human)) | pKd [1] | pKd [2] | pKd [3] | Substance
1 | 5.76 | – | – | – | Human serum IgA monomer (antibody)
2 | – | 9.10 | 9.01 | 9.10 | Glycosylated IgA2m2.Fc only Tetramer

— patent US20220048990A1
